Here are results for 14 sequences from the DeepSol protein solubility set.

This data set in a line: soluble on expression in E. coli; label from the status in PepcDB or PDB records.
Regarding “MKPLFGKVGVFGVGLLGGSVALGIKERFLAEEVHAYDQDPMALEKVLFLGVADRVHTEVGPWVGELDLGILAAPVGALAELGKALAPWAHPESLWTDVGSVKAKVVAALEGLLPHYLGGHPMAGSERAGVENAHAGLLQNAVWVLTPTERTSPRAREGVRGLVEALGAYPLEMPPGRHDELVARVSHLPYLLAVALNRMVAQSPHRDLLMFLAAGGFRDLTRVASGSPRMSRDMVVENKEALKEAIEELREVLLELEGLLDEPEGLLRAAEEAKRTRDSLPIVRRSLLPEMHDLVVQVPDRPGEIARIATALGEAGVNIKDIEVLTIREAAGALRLSFATREERERARRVLQEAGYRLP”, the “soluble on expression in E. coli” value is “soluble”. For the sequence “MGSDKIHHHHHHMLNIDGSKYIVNNNLKNYLDNIKKPWGILFYRVLWQQLDKIKTSKVLDFGSGFGITANHFASNNMVIAIEPNSELVEARIQENDYIQIVGDLKALKSQKDNYFDVILCHNVFEYAKEREEIFKEFLRILKPGGIISLVKHNHAGRIMQKVVFENNIDEAEKLLNGGIIEVLGFGKVSYYKLEDIKKWCKGFEVEIIKVLGIRTFWALQQDNKIKEDPIWQEKMFKIEMMVSNIDEYVNISFFNHIILKKALKNYALE”, the “soluble on expression in E. coli” value is “not soluble”. Take “MIHLVDYALLKPYLTVDEAVAGARKAEELGVAAYCVNPIYAPVVRPLLRKVKLCVVADFPFGALPTASRIALVSRLAEVADEIDVVAPIGLVKSRRWAEVRRDLISVVGAAGGRVVKVITEEPYLRDEERYTLYDIIAEAGAHFIKSSTGFAEEAYAARQGNPVHSTPERAAAIARYIKEKGYRLGVKMAGGIRTREQAKAIVDAIGWGEDPARVRLGTSTPEALL”: the “soluble on expression in E. coli” value is given as “soluble”. “MGSDKIHHHHHHMKLIWLGHGGFRLETGETTLLIDPWLTGNPMLEDSQHDAATQGATHILLTHAHFDHVADVLELAKHLSVPIVGQYDLMGYWGETEGVQTVGFNKGGTVTVGDTRVSMVPASHSNTFSTRDGLRTAGSEVGYMIRAEGKTLYVSGDTDIMADMDWMGDYYKPEIGILSAGGHFTMDMKAAAYAAQRYFAFKTVIPCHYRTFPLLEQSAQDLIDGLPGVNVIEPQIMKDIEL”: the “soluble on expression in E. coli” value was “not soluble”. As for “MGSDKIHHHHHHMSQAFLASENEQIKDYYEENGYVVVKNAVSLEKITDFINKYENFKISKNYYFRSQDTNRAEKLAINEKGFIERSILNPLELVYQKDFCRSSSNIICADSVSQILRTLTGKQKHTIWQTMFFDKSTGTVAHQDHYYLDSDPPGNLIACWYALEDIQEDAGAFFVVPKSHKGSVIPRKTDVPLFSDHEEYAKNIQKLINEQSYPIQPMLLEKGSVLFWHPYLIHGAFQNTNPKYSRKSFTAHFLPEGYSRLGISRVKPTVISTNPNILSWKKNLLHHAEASIRHWRYWLQVNLRPKSQRPYLEMRSSEYLDIK”, the “soluble on expression in E. coli” value was “not soluble”. “MKGGLLVDDEFIHGEERSLTVRKTSLFFAGDGFTVYDCKGSLVFRVDSYGGPNTRDTDEVVLMDAHGRCLLTLRRKRPSLRRRWEGYLGERSDGQKPIFGVRRSSIIGRNSVTVEVYGDYQCSEYLIEGSFGARNCTVVEAETRRKVAEIRRKVDASTNVMLGKDVFSLNVKPGFDGAFAMGLVLVLDQIYGDDLLEVGEEQVHPSAEDL”: the “soluble on expression in E. coli” value was “not soluble”. Turning to “MSHAVTIEEPQAQPQVSQTRYRERSRAGSHISSNRAYDFLYDPLFIVSSEKDHTQANIQATLIRSRLRKVPRFKTMFSNLIHYPRYSLYWSKSDPVPPFISREWKGHKEKHREALRQLTTTDASFQMPKEVYEDPEVTGKNRYKYFERPFLPFFQQMPFNVVYAVSKAEPYTFPPTSTKHLSIPSKSTVGTQTDYRDADVQTDPYSPEYVVCQDSIPELLTLATLTWGRGLPAGQAEVEMIERAREKRAWEASLPALSDTSQFEKRRKMMNEMERKEWAFREQEIEKLQEIRLEVLKELLRKREENQNEVNMKHLNARWSKLQEGKEAKMAVIYLQKLLRGRVIQNMMFEGKEKRLELIQELRTCHALQEDEKLVKKAEKQVTLALQRQRNLHEHKVSLVENHLAGLEGRALADMFDFLSKELVRLQEERRIHAFVMLAERQRRVREAEESGRRQVEKQRLREEDEIFKEVVKVHHSTISSYLEDIILNTEANTAEEQARAEIEKMAEKINDIAYEMESRRTYLQSEEIVAELVYSFLIPEVQKYFVKEKVRNAQRKHILAAHQIIHSYTESMVQKKLTEGEQDEASNAAMLLEKETQNENNS”, the “soluble on expression in E. coli” value is “not soluble”.

With “GSEELLDLFNRQVTQEFTASQVYLSASIWFDQNDWEGMAAYMLAESAEEREHGLGFVDFANKRNIPIELQAVPAPVSCAEWSSPEDVWQSILELEQANTRSLLNLAEAASTCHDFAVMAFLNPFHLQQVNEEDKIGSILAKVTDENRTPGLLRSLDVVSFLGPCLFRS”, the “soluble on expression in E. coli” value is listed as “soluble”.

In the case of “SPRIAEKMLRKRHGQAAFAAYVEKREQTRAAARAYDQRALQGDLEIIYNFGQDLIDEHAIEVSAEQVTVPGFSQPLVYKKDARFSDMLD”, the “soluble on expression in E. coli” value is “not soluble”.

Take “HSPKVSSQNRTRSFGHFPGPEFLDVEKTSFSQEQSCDSAGEGSERIHQDSESGDELSSSSTEQIRATTPPNQGRPDSPVYANLQELKISQSALPPLPGSPAIQINGEWETHKDSSGRCYYYNRGTQERTWKPPRWTRDASISKGDFQNPGDQEWLKHVDDQGRQYYYSADGSRSEWELPKYNASSQQQREIIKSRSLDRRLQEPIVLTKWRHSTIVLDTNDKESPTASKPCFPENESSPSSPKHQDTDQEKYGLLNVTKIAENGKKVRKNWLSSWAVLQGSSLLFTKTQGSSTSWFGSNQSKPEFTVDLKGATIEMASKDKSSKKNVFELKTRQGTELLIQSDNDTVINDWFKVLSSTINNQAVETDEGIEEEIPDSPGIEKHDKEKEQKDPKKLRSFKVSSIDSSEQKKTKKNLKKFLTRRPTLQAVREKGYIKDQVFGSNLANLCQRENGTVPKFVKLCIEHVEEHGLDIDGIYRVSGNLAVIQKLRFAVNHDEKLDLNDSKWEDIHVITGALKMFFRELPEPLFTFNHFNDFVNAIKQEPRQRVAAVKDLIRQLPKPNQDTMQILFRHLRRVIENGEKNRMTYQSIAIVFGPTLLKPEKETGNIAVHTVYQNQIVELILLELSSIFGR”: the “soluble on expression in E. coli” value was “soluble”. “SMVSPEEAVKWGESFDKLLSHRDGLEAFTRFLKTEFSEENIEFWIACEDFKKSKGPQQIHLKAKAIYEKFIQTDAPKEVNLDFHTKEVITNSITQPTLHSFDAAQSRVYQLMEQDSYTRFLKSDIYLDLMEGRPQRPTNLRRRSRSFTCNE”: the “soluble on expression in E. coli” value is “soluble”. “MTTEAPVRVEDKLYQNRYLVDVGNAHIKVKPHTKPSPQLLALLKVCPAHCYELNSNGQVEVTPDGCVECGTCRVLAEGGGDIEWSYPRGGYGVLFKFG”: the “soluble on expression in E. coli” value was “not soluble”. For the sequence “MTLTQIHALLAVLEYGGFTEASKRLYMTQSAVSQAISALEEELGVDILIRERRKEIELTAAGSRIVRHLRAIQRDVNAVKEIAEQEKKNPARTLRIGCFPSACACILPGVIRYFESHHPNVKIIPYEENSTAIIDSLQDGSIDAGFVPFPVNGMYCVPIYRDKFTVVVPENHPLAANSTVTVEELMDEPLIVSKGRYELSIMALFKEKGIEPIFKYEFNHPDTALNFIRQGLGIALLPELTLKATTGKLCSVALEPTFYRQISLLAKEPPVEGSPLFLLQKCMETLTDEGLL”, the “soluble on expression in E. coli” value is “not soluble”. To “MTTWLYAGVDGGGTGCRARIYQANGTPLGQGHGGRANLLLGVENVRQSVDNAIAQALKHSGLSPDDVSRLKVGLALASAEHRTAYDTFLALPHPYATQVLNTDALGACLAVNQGKDAGVVIAGTGSCGLAWQNQTITAYGGHEFPISDQGSGARLGLAALQHTHDVLQGWRAPSALSQSIDDFFCASAAHALAANTLDALQTFSQQAKPGDYAQFARHVFDCAQQDDAVSHALLAQTASEICLLLAAVARHASPRLSLMGSIGLHIRPWLPDEWQSQLAVPMGDALDGARLIACHDYALYSHPLLEHHHHHH” belongs “not soluble”.
